The experiment has as its target non-specific polyclonal IgG. Put plainly: non-specific polyclonal IgG (2 ug/ml) added as bait, protein A Sepharose pull-down, deoxycholate release, HGF ELISA.

“Hepatocyte Growth Factor (HGF) in human epicardial-derived cell-conditioned medium (EPI CdM) (ligand)” yielded an HGF recovered from beads after pull-down with IgG of 2.8 ng/mL.

Source of the values: patent publication US20190225661A1.
